These results are taken from US20220041691A1, “METHODS FOR DIAGNOSING OR TREATING POST-TRAUMATIC STRESS DISORDER, AND COMPOSITIONS THEREFOR” (Centre for Addiction and Mental Health, priority 2018, published 2022).

“Also recorded” adds a separate entry of the source. Where two headings read alike, the source gives them in different places. Ends that are not written are not given here.

One assay concerns the target T1, FKBP51 (Mus musculus, UniProt Q64378).
T1 construct: from tissue; host or cells: mouse brain
T1 sequence (Q64378 1-456): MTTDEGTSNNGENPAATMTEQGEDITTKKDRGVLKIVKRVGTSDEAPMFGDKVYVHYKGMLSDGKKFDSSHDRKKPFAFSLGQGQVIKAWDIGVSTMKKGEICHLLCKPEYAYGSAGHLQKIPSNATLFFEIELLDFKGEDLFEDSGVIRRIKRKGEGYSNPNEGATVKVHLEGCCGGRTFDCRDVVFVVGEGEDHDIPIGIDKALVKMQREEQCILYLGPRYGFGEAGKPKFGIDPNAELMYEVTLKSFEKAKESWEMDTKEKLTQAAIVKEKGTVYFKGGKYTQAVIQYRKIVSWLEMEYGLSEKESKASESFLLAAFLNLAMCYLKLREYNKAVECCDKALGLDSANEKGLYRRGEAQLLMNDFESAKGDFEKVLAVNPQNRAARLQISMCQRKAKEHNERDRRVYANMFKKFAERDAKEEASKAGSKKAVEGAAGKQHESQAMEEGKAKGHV
Nature of the assay: GST pull-down of FKBP51 by GST-GR fragments in mouse brain tissue. It counts as binding. The text has this:
The present inventors identified that if increased GR-FKBP51 complex levels are part of the pathophysiology of PTSD, then disrupting the complex may rescue behaviors related to PTSD. To develop an agent (in this example, a peptide-based agent) capable of blocking the GR-FKBP51 interaction, experiments were first performed to identify the regions of the GR that are important to bind FKBP51 (and vice versa). Initially, GST-fusion proteins were used encoding the amino-terminus (NT) of GR (GRNT) and the carboxyl-terminus (CT) of GR (GRCT) for affinity purification. […] Extending this strategy, GRNT fragments were examined (see FIG. 8, where the 6 tested GRNT fragments, NT-1, NT-2, NT-3, NT-4, NT-5, and NT-6 are shown). […] Similarly, it was determined that the TPR (tetratricopeptide repeat) domains of FKBP51 bind GR (FIG. 2D). In these studies, GST-fusion proteins of 3 different portions of the FKBP51 protein were prepared (FK1, FK2, and TPR, see FIG. 9) and tested. The TPR fragment was identified as containing the relevant interaction region.
GST-fusion proteins encoding truncated GR fragments were amplified by PCR from full-length human cDNA clones. All constructs were sequenced to confirm the absence of PCR-generated errors. GST-fusion proteins were prepared from bacterial lysates with glutathione sepharose 4B beads as instructed by the manufacturer (Amersham).^25 To construct GST-fusion proteins encoding truncated GR, cDNA fragments were amplified by using PCR with specific primers. 5′ and 3′ oligonucleotides incorporated with specific restriction enzyme sites were used to facilitate sub-cloning into the pGEX-4T3 vector. To confirm appropriate splice fusion and correct nucleotide sequences, all constructs were re-sequenced.

In a further assay the target is T2, FKBP51-TPR (Homo sapiens, UniProt Q13451).
T2 construct: made in house; host or cells: bacteria
T2 sequence (Q13451 258-457): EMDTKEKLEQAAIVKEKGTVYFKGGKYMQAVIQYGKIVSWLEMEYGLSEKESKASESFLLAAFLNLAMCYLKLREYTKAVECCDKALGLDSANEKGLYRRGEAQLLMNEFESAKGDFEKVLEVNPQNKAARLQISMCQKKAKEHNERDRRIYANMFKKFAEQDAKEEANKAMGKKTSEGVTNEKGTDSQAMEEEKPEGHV
Nature of the assay: Surface plasmon resonance, binding of FKBP51 TPR domain to GR and its phosphorylation mutants. To be noted: Flag-tagged GR immobilized on sensor chip, 25° C. The protocol: The binding of FKBP51 TPR domain to GR and its phosphorylation mutants was determined by surface plasmon resonance using a Reichert SR7500DC instrument. Experiments were conducted at 25° C. with 2000 RU HEK293 expressed FLAG-tagged GR bound onto a FLAG antibody-coated Dextran 50,000 Da chip. Running buffer (PBS, pH 7.4 with 0.005% Tween 20) was used with a flow rate of 25 μl/min. With association time of 300s and dissociation of 240s, binding signals were determined by injecting various concentrations of the GST-FKBP51_TPR.

Assay [1] addresses T3, FK506 Binding Protein 51 (FKBP51), endogenous, mouse brain / mouse lymphocyte lysate (mouse, UniProt Q64378 1-456).
T3 construct: Endogenous protein in tissue lysate; also called mouse FKBP51
T3 sequence (looked up): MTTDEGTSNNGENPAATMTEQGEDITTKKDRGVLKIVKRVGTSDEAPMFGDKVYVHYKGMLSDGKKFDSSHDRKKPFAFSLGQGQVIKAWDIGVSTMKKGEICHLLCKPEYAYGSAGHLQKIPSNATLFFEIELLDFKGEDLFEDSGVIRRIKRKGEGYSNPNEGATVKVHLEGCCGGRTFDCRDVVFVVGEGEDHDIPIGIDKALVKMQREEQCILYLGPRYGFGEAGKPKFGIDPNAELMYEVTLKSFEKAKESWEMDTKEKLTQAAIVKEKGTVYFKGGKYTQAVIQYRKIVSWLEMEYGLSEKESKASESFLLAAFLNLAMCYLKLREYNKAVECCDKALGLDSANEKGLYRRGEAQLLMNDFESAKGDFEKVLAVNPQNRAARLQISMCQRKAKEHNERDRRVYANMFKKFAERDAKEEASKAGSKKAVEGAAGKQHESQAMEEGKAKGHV
Nature of the assay: GST pull-down from mouse brain tissue, Western blot.

The target in assay [2] is T4, glucocorticoid receptor (GR), endogenous, mouse brain / mouse lymphocyte lysate (mouse, UniProt P06537 1-792, limits assumed).
T4 construct: Endogenous protein in tissue lysate; other cellular proteins are present in the co-IP and pull-down experiments; also called mouse GR
T4 sequence (looked up): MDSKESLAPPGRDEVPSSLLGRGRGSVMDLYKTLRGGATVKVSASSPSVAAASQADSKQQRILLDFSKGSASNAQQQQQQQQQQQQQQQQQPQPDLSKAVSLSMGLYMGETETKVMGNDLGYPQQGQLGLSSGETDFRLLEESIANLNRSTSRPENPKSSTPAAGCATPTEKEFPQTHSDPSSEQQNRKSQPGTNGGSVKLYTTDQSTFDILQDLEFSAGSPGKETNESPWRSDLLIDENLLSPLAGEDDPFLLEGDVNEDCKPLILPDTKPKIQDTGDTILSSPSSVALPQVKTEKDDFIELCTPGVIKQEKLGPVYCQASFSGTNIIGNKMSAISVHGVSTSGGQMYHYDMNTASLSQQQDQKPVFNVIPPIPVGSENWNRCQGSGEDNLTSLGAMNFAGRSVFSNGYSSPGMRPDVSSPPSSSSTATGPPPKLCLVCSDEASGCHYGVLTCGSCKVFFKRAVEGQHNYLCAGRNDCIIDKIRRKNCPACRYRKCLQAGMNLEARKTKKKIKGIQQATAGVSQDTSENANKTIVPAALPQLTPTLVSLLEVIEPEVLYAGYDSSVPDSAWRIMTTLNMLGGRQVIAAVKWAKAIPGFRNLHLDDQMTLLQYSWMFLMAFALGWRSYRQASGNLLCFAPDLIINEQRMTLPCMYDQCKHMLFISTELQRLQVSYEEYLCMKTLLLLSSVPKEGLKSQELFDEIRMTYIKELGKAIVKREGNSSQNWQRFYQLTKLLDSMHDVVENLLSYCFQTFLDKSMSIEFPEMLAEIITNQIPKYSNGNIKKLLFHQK
Described as above.

For the molecule “GST-GRNT4-1: GST-fusion protein of GR fragment SPWRSDLLIDENCLL (S211-L225) (also: GST fusion protein)”, in the assay with FKBP51, the “pull-down (precipitation) of FKBP51 by GST-GR fragment, Western blot” value (“pull-down (precipitation) of FKBP51” for short) is “can “pull-down””.

“WT GR: Flag-tagged wild-type glucocorticoid receptor expressed in HEK293”: the dissociation constant Kd in the assay with FKBP51-TPR (figure legend values, read-out: KD for binding FKBP51-TPR (SPR)) was determined as 3.31 µM; with FKBP51-TPR (read-out: KD for binding FKBP51 (SPR)), 3.31 ± 0.04 µM.

B1: GST-GRNT3 (other)
chain: SSASTAVSAAPTEKEFPKTHSDVSSEQQHLKGQTGTNGGNVKLYTTDQSTFDILQDLEFSSGSPGKETNE
notes: not shown: glutathione S-transferase (GST) tag from the pGEX-4T3 vector
Take B1: the binding result in assay [1] is recorded as “no binding”.

B2: GST-FK2 (other)
chain: EDGGIIRRTKRKGEGYSNPNEGATVEIHLEGRCGGRMFDCRDVAFTVGEGEDHDIPIGIDKALEKMQREEQCILYLGPRYGFGEAGKPKFGIEPNAELIYEVTLKSFEKAKESW
notes: also called FKBP51FK2; not shown: glutathione S-transferase (GST) tag; vector stated only for the GR fragments (pGEX-4T3)
B2: the binding result in assay [2] is on record as “no binding”.

B3: GST-GRNT: GST-fusion protein encoding the amino-terminus of GR (protein)
chain: MDSKESLTPGREENPSSVLAQERGDVMDFYKTLRGGATVKVSASSPSLAVASQSDSKQRRLLVDFPKGSVSNAQQPDLSKAVSLSMGLYMGETETKVMGNDLGFPQQGQISLSSGETDLKLLEESIANLNRSTSVPENPKSSASTAVSAAPTEKEFPKTHSDVSSEQQHLKGQTGTNGGNVKLYTTDQSTFDILQDLEFSSGSPGKETNESPWRSDLLIDENCLLSPLAGEDDSFLLEGNSNEDCKPLILPDTKPKIKDNGDLVLSSPSNVTLPQVKTEKEDFIELCTPGVIKQEKLGTVYCQASFPGANIIGNKMSAISVHGVSTSGGQMYHYDMNTASLSQQQDQKPIFNVIPPIPVGSENWNRCQGSGDDNLTSLGTLNFPGRTVFSNGYSSPSMRPDVSSPPSSSSTATTGPPPKL
modifications: left off: a dimerising Fc or GST
notes: GST-fusion protein encoding the amino-terminus of GR
As to B3, the “pull-down (precipitation) of FKBP51” value in the assay with FKBP51 was “can “pull-down”; also recorded: precipitated FKBP51”.

B4: GST-GRNT2 (other)
chain: SNAQQPDLSKAVSLSMGLYMGETETKVMGNDLGFPQQGQISLSSGETDLKLLEESIANLNRSTSVPENPK
notes: as for B1
For B4, in assay [1], the binding result is reported as “no binding”.

B5: GST-FK1 (other)
chain: MTTDEGAKNNEESPTATVAEQGEDITSKKDRGVLKIVKRVGNGEETPMIGDKVYVHYKGKLSNGKKFDSSHDRNEPFVFSLGKGQVIKAWDIGVATMKKGEICHLLCKPEYAYGSAGSLPKIPSNATLFFEIELLDFKGEDLF
notes: also called FKBP51FK1; not shown: glutathione S-transferase (GST) tag; vector stated only for the GR fragments (pGEX-4T3)
In the case of B5, in assay [2], the binding result is reported as “no binding”.

B6: GST-GRNT4: GST-fusion protein of GRNT fragment 4 (protein)
chain: SPWRSDLLIDENCLLSPLAGEDDSFLLEGNSNEDCKPLILPDTKPKIKDNGDLVLSSPSNVTLPQVKTEK
modifications: also: GST fusion protein
In the case of B6, the “pull-down (precipitation) of FKBP51” value was “can “pull-down”” in the assay with FKBP51 and “best precipitation of FKBP51” in the assay with FKBP51 (listed as NT-4).

B7: GST-TPR2 (other)
chain: ESKASESFLLAAFLNLAMCYLKLREYTKAVECCDKALGLDSANEKGLYRR
modifications: cysteine pairing not given here; also: GST tag fusion, linker not given here
notes: also called FKBP51TPR-2; not shown: glutathione S-transferase (GST) tag; vector stated only for the GR fragments (pGEX-4T3)
B7: in assay [2], the binding result is given as “no binding”.

B8: GST-GRNT1 (other)
chain: MDSKESLTPGREENPSSVLAQERGDVMDFYKTLRGGATVKVSASSPSLAVASQSDSKQRRLLVDFPKGSV
notes: as for B1
For the molecule B8, the binding result in assay [1] is “no binding”.

B9: GST-GRCT (GST fusion of the carboxyl-terminus of GR) (other)
chain: CLVCSDEASGCHYGVLTCGSCKVFFKRAVEGQHNYLCAGRNDCIIDKIRRKNCPACRYRKCLQAGMNLEARKTKKKIKGIQQATTGVSQETSENPGNKTIVPATLPQLTPTLVSLLEVIEPEVLYAGYDSSVPDSTWRIMTTLNMLGGRQVIAAVKWAKAIPGFRNLHLDDQMTLLQYSWMFLMAFALGWRSYRQSSANLLCFAPDLIINEQRMTLPCMYDQCKHMLYVSSELHRLQVSYEEYLCMKTLLLLSSVPKDGLKSQELFDEIRMTYIKELGKAIVKREGNSSQNWQRFYQLTKLLDSMHEVVENLLNYCFQTFLDKTMSIEFPEMLAEIITNQIPKYSNGNIKKLLFHQK
notes: as for B1
Consider B9, for which the binding result in assay [1] is on record as “no binding”.

B10: GST-GRNT6 (other)
chain: FNVIPPIPVGSENWNRCQGSGDDNLTSLGTLNFPGRTVFSNGYSSPSMRPDVSSPPSSSSTATTGPPPKL
notes: as for B1
As to B10, in assay [1], the binding result is reported as “no binding”.

B11: GST-GRNT5 (other)
chain: EDFIELCTPGVIKQEKLGTVYCQASFPGANIIGNKMSAISVHGVSTSGGQMYHYDMNTASLSQQQDQKPI
notes: as for B1
B11: in assay [1], the binding result was “no binding”.

B12: GST-TPR4 (other)
chain: IYANMFKKFAEQDAKEEANKAMGKKTSEGVTNEKGTDSQAMEEEKPEGHV
modifications: also: GST tag fusion, linker not given here
notes: also called FKBP51TPR-4; not shown: glutathione S-transferase (GST) tag; vector stated only for the GR fragments (pGEX-4T3)
On to B12, for which, in assay [2], the binding result was “no binding”.

B13: GST-TPR1 (other)
chain: EMDTKEKLEQAAIVKEKGTVYFKGGKYMQAVIQYGKIVSWLEMEYGLSEK
modifications: also: GST tag fusion, linker not given here
notes: also called FKBP51TPR-1; not shown: glutathione S-transferase (GST) tag; vector stated only for the GR fragments (pGEX-4T3)
As for B13, the binding result in assay [2] is listed as “no binding”.
